From the DeepSol protein solubility set

Assay: soluble on expression in E. coli; label from the status in PepcDB or PDB records
In the case of “MSLRKTVAFGFVGTVLDYAGRGSQRWSKWRPSLCICQQESLVIDRLELLHDARSRSLFETLKRDIASVSPETEVVSVEIELHNPWDFEEVYACLHDFARGYEFQPEKEDYLIHITTGTHVAQICWFLLAEARYLPARLIQSSPPRKKEQPRGAGEVTIIDLDLSLYNAIASRFAEERQQTLDEGHHHHHH”, the “soluble on expression in E. coli” value is reported as “soluble”. With “DFDFEGNLALFDKAAVFEEIDTYERRSGTRSRGIPNERPTRYRHDENILESEPIVYRRIIVPHNVSKEFCTDSGLVVPSISYELHKKLLSVAEKHGLTLERRLEMTGVCASQMALTLLGGPNRLNPKNVHQRPTVALLCGPHVKGAQGISCGRHLANHDVQVILFLPNFVKMLESITNELSLFSKTQGQQVSSLKDLPTSPVDLVINCLDCPENVFLRDQPWYKAAVAWANQNRAPVLSIDPPVHEVEQGIDAKWSLALGLPLPLGEHAGRIYLCDIGIPQQVFQEVGINYHSPFGCKFVIPLHSA” the “soluble on expression in E. coli” value was “soluble”. For “MKKSLLGIISILSLTLLFSGCVDNSGAEEQAVLHAYVGAGMQMPMDEIAIEFEEKYGIKVEYDYSGSGALLSKIVASNQGDIFMPGDCSYVYQLQEKEMSTECSNVTKHIPVIAVQKGNPKNITGLSDLGQDDLELALGDSSISIGKLFTKILSKAETKGVNVTEAVNSNTVVTGATVKQVLLYVTEKNVDAAVVWSADAYENSDAVDIVPIESEYNIIKTVPISILSTTEDYDNAKLFYDFVNNEGKEIFEKHGFVALE”, the “soluble on expression in E. coli” value was “not soluble”. For “MGHHHHHHSHVRSPQNQYPAELMRRFELYFQGPSSNKPRVIREVRADSVGKLVTVRGIVTRVSEVKPKMVVATYTCDQCGAETYQPIQSPTFMPLIMCPSQECQTNRSGGRLYLQTRGSRFIKFQEMKMQEHSDQVPVGNIPRSITVLVEGENTRIAQPGDHVSVTGIFLPILRTGFRQVVQGLLSETYLEAHRIVKMNKSEDDESGAGELTREELRQIAEEDFYEKLAASIAPEIYG”, the “soluble on expression in E. coli” value was “soluble”. In the case of “MSLKPQKILIATDGSEASEKAADFGIETLRFEGAKVYAVYVIDTGSYGSVPVDEKKFKKIERLEEIGHKATSYVEKKATAAGMKVESIVLKGNPAEEIVDFAEEQRVDMIVVGSLGKSGIKRFMLGSVSEKVVRRAKIPVLVVREQKEIKPQKQILIAADCSKATEKAVDFGIEIAKLNGAKVYAVHVIDPIFNDLMEEAWAENAYEQFKKIGREAVSYVEEKANAAGVKVESAVLEGNPAEEIVDFAEEQKVDMIVVGSLGKSGYEQFAIGSVSSKVLRNAKVPVLIVHDIYEFVELFRRCQKSEEVLTPVAGEKEGHHHHHH”, the “soluble on expression in E. coli” value is reported as “soluble”. For “MGSDKIHHHHHHMQFEMHDHVKGKAMSYPVTSQPQCANTCYQTQLSDWHTGLTDCCNDMPVCLCGTFAPLCLACRISDDFGECCCAPYLPGGLHSLRTGMRERYHIQGSVGHDWAALTFCLPCALCQMARELKIRE”, the “soluble on expression in E. coli” value was “not soluble”. With “MFRSVLVEAAVRVESPLLAHRLEDALLHACKQRFCSRILPSLGVCLTALRICKLVDGAGKQLALEIWPVEVSGGGLRARVHVELLLWSPLPHELAFAQVRSCSRFGIRLSILNGFDYAFVPPGSMPEPCTYHEEQRCWSWRFNEDDFVIGEGDWVRVLIERVEYATDSAMATFDSPGTVGSGPPLHILPPPVPVGRTVMETDQANATPGAHPEHAPPLETEPPEFWETPSILPLRVWARLDAPGLGPIDWWS” the “soluble on expression in E. coli” value was “not soluble”. For “MFSGGRKVKWNHFGKKYALRFSDYEMEYADLYDALLKKVHEVRADFEGDLAFIDQYGRQVIVSSDKDVREAIQQSKNKLKLHTTLRDGHVIAAADMAEAARGRPARSQSVPPERSYNMYPQRSPSSMDSAPDTYRHHPQQMTRAMSPPPMSTTTGSTHSPPLRQIGETVKTTYSHSGSYGGLYPGGYKGYPYGGGYSNSILYGMPPHNGMLWRFLANPFPFGNAQTRSFIGPNKYHHFGGYNHMYSSGFGGPVW”, the “soluble on expression in E. coli” value was “not soluble”. For “MWRLIYSLLFLIPGAAMAGAQVYEPLSASTRTVLHRTISDQAVPMLVTLPGPEAKDWLDSMTKRLEKRISDIEERRAFLITVHYEATRAGLDPELVLSIIQVESNFRKYAVSSAGARGYMQVMPFWVDTIGNPEHNLFHLRVNLRYGCTILRHYLDLEQGDYFRALGRYNGSLGKAGYPNLVFNAWHRHWTYSTASQ”, the “soluble on expression in E. coli” value was “not soluble”. In the case of “MIKLAPAALKADLQVRQERVRIAMEEEGYDALLVTSNVNLLYLFGSIYGGAAYLPAEGEPIFFVRRPQVIEEGNVCPIRKLEDIPALIQSRGGVLPRRIMLENDESSYSDIKRQHSIFPNAEYGNATALLRRLRMIKTPGEIELFRRTAAIHGEVYACIPSVFRPGMTDREFQVEIEHLMRNYGSEGIFRTFGSAMEIHMGNVIVGDNAESPSPYDFAMGGGGTDALPLGADGSPMKEGMCVMVDMAGNYSAYISDMTRSYAIGKVPDEARRLHDLSREIQAKVMETAEPGMSCADLYKRSVEMAEEAGAADKFMGTKQQAKFVGHGIGLQINEMPVLMARSKEILTPGMVIAFEPKFVLPGIGAVGNENSFLVTESGVEKLTVCSEELIDLLAVAKQ”, the “soluble on expression in E. coli” value is reported as “not soluble”. With “METTKTNVLEAGAKVLQSNGPVGKLDIYLVGFHPMKDAPEQQMEAHHYCQQVNQDLAQCALYDGNTAEANLTGIEYIISESLFAQLPAQERAFWHPHNGEILSGQLSAPNLPLVAEKELMRSKMNSYGKTWHTWHSRKGTAPGDTLPLGEPMLAWSFSRDGEIQQPLIEQRDKAVTISTAERRADRKDLTELAKPQHGVDALHRHFPEATPIPGVVDAEATAQLEHHHHHH” the “soluble on expression in E. coli” value was “soluble”. For “MAFKLPNLPYAYDALEPYIDQRTMEFHHDKHHNTYVTKLNATVEGTELEHQSLADMIANLDKVPEAMRMSVRNNGGGHFNHSLFWEILSPNSEEKGGVIDDIKAQWGTLDEFKNEFANKATTLFGSGWTWLVVNDGKLEIVTTPNQDNPLTEGKTPILLFDVWEHAYYLKYQNKRPDYMTAFWNIVNWKKVDELYQAAK”, the “soluble on expression in E. coli” value was “not soluble”. With “MSRRLRRTKIVTTLGPATDRDNNLEKVIAAGANVVRMNFSHGSPEDHKMRADKVREIAAKLGRHVAILGDLQGPKIRVSTFKEGKVFLNIGDKFLLDANLGKGEGDKEKVGIDYKGLPADVVPGDILLLDDGRVQLKVLEVQGMKVFTEVTVGGPLSNNKGINKLGGGLSAEALTEKDKADIKTAALIGVDYLAVSFPRCGEDLNYARRLARDAGCDAKIVAKVERAEAVCSQDAMDDIILASDVVMVARGDLGVEIGDPELVGIQKALIRRARQLNRAVITATQMMESMITNPMPTRAEVMDVANAVLDGTDAVMLSAETAAGQYPSETVAAMARVCLGAEKIPSINVSKHRLDVQFDNVEEAIAMSAMYAANHLKGVTAIITMTESGRTALMTSRISSGLPIFAMSRHERTLNLTALYRGVTPVHFDSANDGVAAASEAVNLLRDKGYLMSGDLVIVTQGDVMSTVGSTNTTRILTVE” the “soluble on expression in E. coli” value was “soluble”. With “MAHHHHHHMRAVQLVQGRARMCCVPFLFWVCPPPHLFSLSLPTPSLRSCGARTSCVAERSHASRRGGCGLPSPLPAQPTSPPDTRTGDTCICAFSFTPDEVSQTMTDRCYRTLGLDRGAAEADIKRAYRRKALLFHPDRNPNGAEAFKALQGDYEEALTDARRRGARGGGVPPFSSMASPSWDPAAPAAGAAYRFARAAGTACPPFFPEPSPAPLFTDEELFADSIPGGWRDVCARRGASARGGDKAGGRNNAAGRTEEINGSNSCCSQEAAAADARWRRAHGARVPVSAYTFSGPVPPPPPLPSQPSPHLSSSSFTSFCTHTRARASVAGTGSRLSTQAQRNRFVSRECMWKSSSAEALSLDAKQEAGGAGKVGRSRGCDGYTGQNREPVCGSDTGESAEDRVYREAVLLQRRMPALSGKSRGAAAERTRTHSQSDRAFSTEGVPVGSNATFPATRGVYHQRSDLHTSSTTTTTTTSSSTKGERLEAALSQREALCRQCRDTETTLQHEVDDDHAPAFSDDGDASAHPDKGDGAGSTNAALGPSAAGPLAASGRDTSRAGDPFPVKQSACPESNSDDRLRGDLPHRDRIPDECPLLQSENPRGRYTPNPAEVAEMSDMEVYLLASVAEDINQKTQTVMTARLSKEPYSCSASTPRAHQHVYFTCTHPSACEDCYASGVSKCPLCGASGVDRSSPPPSATTTSSSIEKGGTTGASGACTGTRASLASSSAPSPETMYEPVRVHSVLTCGDADA” the “soluble on expression in E. coli” value was “not soluble”. With “MFAVRTKFVTKTEVVLRTVYTALEKGLAVIGPTQVAEELGVSKSTAQKMLNELSKAGYGVYVPKKGLVLNERGKMEARAAVRMHRLIECLLADLGVEDFCKEAEKIGMVAGSSLVDALEARYGDREFCPCGKRIPEVKK” the “soluble on expression in E. coli” value was “not soluble”. In the case of “MSEFNEKPEKLIVDGLRLDGRKFDELRPIKIEASVLKRADGSCYLEMGKNKVIAAVFGPREVHPRHLQDPSKAIIRYRYNMAPFSVEERKRPGPDRRSIEISKVSKEAFEAVIMKELFPRSAIDIFVEVLQADAGSRTACLNAASVALVDAGVPMKGMITSVAVGKADGQLVLDPMKEEDNFGEADMPFAFLIRNGKIESIALLQMDGRMTRDEVKQAIELAKKGALQIYEMQREAILRRYIEVGEEMDEITEGGEDA”, the “soluble on expression in E. coli” value is reported as “soluble”. With “MGSDKIHHHHHHMRIEVKLLPLKDNPILPFNYNYEVYSQILEKVNSIEPTIAKLLSSPHGFWTFSRIIVRKRKILPDKGIEILSDDVSLYISSSNEDIIRAIAEAVEKSPEFKIGELSFLVGDIKAIKVKELGKENVFSTLSPIVVRTVKFEGNKLRHWDLYPHDELFMDRLRKVMILRYSEVMGETPKDRDFTIEVLKFKPTRLMVGSSYIRGSLMVFRYAGSEEIARFGYENGFGEKTGLGFGMVKLIE” the “soluble on expression in E. coli” value was “not soluble”. For “MGSDKIHHHHHHMKKILVVGDFIKGSGLTNYLLNIYSSLPKDEFLISCVSYSGQHNIDTVLEEKKWEKFEVTPITQDIIKHFKDWNNFFKLHGNDFDEIHFNYSAPWNFIAILLAKLKSKAKIIVQSHNNYYSKQPKGLQKKVLAVLNVTGRTVIGRCSDIRLAVSEDSAQWMFGKRNVQILKNGINLKDFEYQPGPREELRKSIGINKGKKIIGFVGTLEKRKNPYFAIECLKKLNKEYILLMFGQGVLKKDLEKKIMDEGLEHRIKLMGVVDNLNEWYSVFDLFLFPSLTEGFGFALLEAQANGLKCFSSTSIPKEAKITNDVTSLNLSEINKWIDEIEKTSINDRERRSKQNCRIIEKKGFSIENTSKQFKRILLGDLS”, the “soluble on expression in E. coli” value was “not soluble”. For “MLEVDVVRISVIVPIYNVKLYIERCVRSLMEQTLENIEFIFVNDCTPDDSMDILHYVLEEYPKRREQIKIIEHETNRGISAVRNTGLKNATGQYIIYCDSDDWVEKNMYEKLLVKALETSADIVGCDFFDDYVAHSTIRKQLFPQQSEKCVKKMLRGELHCGTWNKLVIKSLYERTKIDFPEGINMWEDVSTIIPLCFHATKIDYIPEALYHYIHHNVSSYTYSVTEKSLENLVASIQLLESFFLTNQCFKTFGEDLCFMKLTVKLNLLLGSKGELQKKRNMLYSSANRYIFSYSGMSWYWKIALWVASKKMLFCFNVMSCIERIIKKWKLEHHHHHH”, the “soluble on expression in E. coli” value was “not soluble”. With “DKKIMVIVNTVDKAITLYEKLRDLSPCLIHSRFKIGDRDEKLRKECNIIIATQVIEVGVNISSEVMITEQAPITSIVQRVGRLLRDNKKDKGELYIWKSGNYYPYDKDEVENTIKELESKKNDISL” the “soluble on expression in E. coli” value was “not soluble”. For “AKFSAIITDKVGLHARPASVLAKEASKFSSNITIIANEKQGNLKSIMNVMAMAIKTGTEITIQADGNDADQAIQAIKQTMIDTALIQG”, the “soluble on expression in E. coli” value was “soluble”.
